Data as given in patent US20160368985A1 (published 2016).

Target: 7D8.RbIgG
Assay: SPR (Biacore)

B1: CyFcRH5 (receptor)
chain: QFVRTYKSHFLQPPWTTVFRGERVNLTCKGFGFYSSQKTKWYYRHLGKEISRETQKNTLEVQESGEYRCQAQGSPLSSPVSLDFSSASLILQAPLSVFEGDSVVLRCRAKAEVTLKTTIYKNENVLAFLNKSTDFHISHASLKDNGAYRCTGYKETCCLVSSNTVKIQVQESFTRPVLRVSSFQPISGSPVTLTCETQLSLERSDVPLQFCFFRNDQMLGSGCSLSPKFRITAMWSKDSGSYWCKAATMCYDTTSNSLRSWIQVLIPASHPVLTLSPEKALNFEGTKVKLHCETQEDSLRTLYKFYHDGVPLRYKSVRCEKGASISFSLTTEHSGNYYCTADNGHGAKPSEAVSLSVTVPVSRPVLTLSSAEDLISEGAKLTLHCEAQRGSLPIVYQFHHENASLGNRSAHSAGGVAISFSLTADHSGNYYCTANNGFGPQRSEAVSLSITVPVSRPVLTLSSAEALTFEGATVTLYCEVQRGSPRILYQFYHEDVPLGSNSTPSVGKVSFSFSLTAAHSGNYYCTADNGFGPQRSEAVSLFVTVPVSRPILTLRVPRAQAVVGDLLELRCEALRGSPPIMYWFYHEDVTLGSSSVPSGGEASFNLSLTAEHSGNYSCEANNGLVAQHSDTISLSVIVPVSRPILTFRAPRAQAVVGDLLELHCEALRGSSPILYWFYHEDVTLGKISAPSGGGAYFNLSLTTEHSGIYSCEADNGLEAQRSEMVTLKVAVPVSRPVLTLRAPRAQVAVGDLLELHCEALRGSPLILYQFYHEDVTLGNSSALSGGAFFNLSLTAEHGNYSCEADNGLGAQRSETVTLYLTGLTENRSGPVATG
  Kd: 1.89 nM
